# Results reported in patent US20230242675A1 (SHANGHAI EPIMAB BIOTHERAPEUTICS, published 2023).
# Where a chain is given by its changes, count along the chain named. Names and notes keep the numbering of the source.
# B1: HuEM0005-86-4 (antibody, human IgG1, V domains shown)
# VH: EVQLVQSGAEVKKPGASVKVSCKASGYTFTTYGINWVRQAPGQGLEWIGYIYIGNGYTEYNEKFKGRVTLTSDTSTSTAYMELSSLRSDDTAVYYCARDLMVIAPKTMDYWGQGTTVTVSS
# VL: DIQMTQSPSSVSASVGDRVTITCKASQDVGTAVAWYQQKPGKAPKLLIYWASTRHTGVPDRFTGSGSGTDFTLTISSLQPEDFATYYCQQYSSYPYTFGGGTKVEIK
# B2: HuEM0005-86-13 (antibody, human IgG1, V domains shown)
# VH: B1 VH with A24T, R67K, V68A, T74P, S77R
# VL: B1 VL with A43S, Y87F
# B3: HuEM0005-86-2 (antibody, human IgG1, V domains shown)
# VH: B1 VH with I48M, L70M
# VL: B1 VL
# B4: HuEM0005-86-6 (antibody, human IgG1, V domains shown)
# VH: B1 VH with A24T, R67K, V68A, T74P, S77R
# VL: B1 VL
# notes: measured without the G55A change
# B5: HuEM0005-86-14 (antibody, human IgG1, V domains shown)
# VH: B1 VH with T74P, S77R
# VL: B1 VL with A43S, Y87F
# B6: HuEM0005-86-7 (antibody, human IgG1, V domains shown)
# VH: B1 VH with T74P, S77R
# VL: B1 VL
# B7: HuEM0005-86-5 (antibody, human IgG1, V domains shown)
# VH: B1 VH with R67K, V68A
# VL: B1 VL
# B8: HuEM0005-86-1 (antibody, human IgG1, V domains shown)
# VH: B1 VH with I48M, L70M, S72T
# VL: B1 VL
# B9: HuEM0005-86-11 (antibody, human IgG1, V domains shown)
# VH: B1 VH
# VL: B1 VL with A43S, Y87F
# B10: HuEM0005-86-3 (antibody, human IgG1, V domains shown)
# VH: B1 VH with I48M
# VL: B1 VL
# B11: HuEM0005-86-10 (antibody, human IgG1, V domains shown)
# VH: B1 VH with I48M
# VL: B1 VL with A43S, Y87F
# B12: HuEM0005-86-9 (antibody, human IgG1, V domains shown)
# VH: B1 VH with I48M, L70M
# VL: B1 VL with A43S, Y87F
# B13: HuEM0005-86-12 (antibody, human IgG1, V domains shown)
# VH: B1 VH with R67K, V68A
# VL: B1 VL with A43S, Y87F
# B14: HuEM0005-86-8 (antibody, human IgG1, V domains shown)
# VH: B1 VH with I48M, L70M, S72T
# VL: B1 VL with A43S, Y87F
# B15: bintrafusp alfa (bispecific antibody, human IgG1, lambda)
# heavy: not shown
# light: QSALTQPASVSGSPGQSITISCTGTSSDVGGYNYVSWYQQHPGKAPKLMIYDVSNRPSGVSNRFSGSKSGNTASLTISGLQAEDEADYYCSSYTSSSTRVFGTGTKVTVLGQPKANPTVTLFPPSSEELQANKATLVCLISDFYPGAVTVAWKADGSPVKAGVETTKPSKQSNNKYAASSYLSLTPEQWKSHRSYSCQVTHEGSTVEKTVAPTECS
# notes: also called M7824; Bintrafusp alfa protein
# B16: EM0005-86c-G55A (antibody, human IgG1, V domains shown)
# VH: QVQLQQSGAELVRPGSSVKMSCKTSGYTFTTYGINWVKQRPGQGLEWIGYIYIGNAYTEYNEKFKGKATLTSDPSSRTAYMQLSSLTSEDSAIYFCARDLMVIAPKTMDYWGQGTSVTVSS
# VL: DIQMNQSHKFMSTSVGDRVSITCKASQDVGTAVAWYQQKPGQSPKLLIYWASTRHTGVPDRFTGGGSGTDFTLTISNVQSEDLADYFCQQYSSYPYTFGGGTKLEMK
# notes: Chimeric antibody with G55A (Kabat) in CDR-H2; also called HuEM0005-86-G55A
# Tests used:
# [1] = target: T1, human PD-L1/His fusion protein (human, UniProt Q9NZQ7 19-239); experiment: BLI off-rate; test group 1
# T1 sequence (Q9NZQ7 19-239 limits assumed): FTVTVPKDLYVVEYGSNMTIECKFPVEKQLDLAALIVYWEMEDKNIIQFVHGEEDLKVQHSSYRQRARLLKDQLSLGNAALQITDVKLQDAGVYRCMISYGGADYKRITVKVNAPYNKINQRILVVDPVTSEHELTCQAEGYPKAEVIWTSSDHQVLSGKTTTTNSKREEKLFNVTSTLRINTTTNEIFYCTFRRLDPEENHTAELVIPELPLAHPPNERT
# Procedure: (§1) All 15 antibodies in Table 13 were assayed for and ranked by dissociation rate constant (koff). […] Briefly, antibodies were characterized for affinities and binding kinetics by Octet®RED96 biolayer interferometry (Pall ForteBio LLC). Antibodies were captured by Anti-hIgG Fc Capture (AHC) Biosensors (Pall) at a concentration of 100 nM for 30 seconds. Sensors were then dipped into running buffer (1×pH 7.2 PBS, 0.05% Tween 20, 0.1% BSA) for 60 seconds to check the baseline. Binding was measured by dipping sensors into a single concentration of recombinant human PD-L1/His fusion protein (Novoprotein). Dissociation was followed by dipping sensors into running buffer for 1200 seconds. The association and dissociation curves were fitted to a 1:1 Langmuir binding model using ForteBio Data Analysis software (Pall). […] The off-rate ratio serves as a data normalization. Accordingly, in each test group, the off-rate ratios of the humanized antibodies can be compared with that of the chimeric antibody, and the off-rate ratios of each of the humanized antibodies can be compared to one another within all test groups.
# [2] = target: T1, human PD-L1/His fusion protein; experiment: BLI Octet RED96, antibody on AHC sensor, single conc. PD-L1/His; test group 1
# Procedure: as §1
# [3] = target: T1, human PD-L1/His fusion protein; experiment: BLI off-rate; test group 3
# Procedure: as §1
# [4] = target: T1, human PD-L1/His fusion protein; experiment: BLI Octet RED96, antibody on AHC sensor, single conc. PD-L1/His; test group 3
# Procedure: as §1
# [5] = target: T1, human PD-L1/His fusion protein; experiment: BLI off-rate; test group 2
# Procedure: as §1
# [6] = target: T1, human PD-L1/His fusion protein; experiment: BLI Octet RED96, antibody on AHC sensor, single conc. PD-L1/His; test group 2
# Procedure: as §1
# human TGFβ1 = target: T2, human TGFβ1 (human, UniProt P01137 279-390); experiment: ELISA: human TGFβ1 coated (1 µg/ml), binding protein titrated 0.0006-10 nM, anti-human IgG Fc-HRP, OD450
# T2 construct: also called TGFβ isoform 1; TGFβ1 (Cat. No. CA59, Novoprotein)
# T2 sequence (P01137 279-390 limits assumed): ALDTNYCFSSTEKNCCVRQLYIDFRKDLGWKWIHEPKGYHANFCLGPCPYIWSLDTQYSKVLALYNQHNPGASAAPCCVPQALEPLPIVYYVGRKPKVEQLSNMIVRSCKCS
# Procedure: (§2) Accordingly, each of the wells of the ELISA microplates provided a reaction mixture to test the ability of a particular binding protein at a particular concentration to bind to a particular TGFβ isoform. […] Plates were washed three times in washing buffer (PBS containing 0.05% Tween 20) and blocked for 1 hour at 37° C. with 200 μl per well of blocking buffer (1% BSA in PBS containing 0.05% Tween 20). […] The wells containing the various binding mixtures were incubated at 37° C. for 1 hour to permit binding to TGFβ protein on the surface of the wells. Thereafter, the wells were washed four times with washing buffer, and anti-human IgG Fc HRP (Sigma, Catalog No. A0170) was diluted 1:10000 and added to the wells at 100 μl per well to detect binding protein that was bound to TGFβ protein present on the surface of a well. The plates were incubated for 1 hour at 37° C. and washed four times with washing buffer. 100 μl of tetramethylbenzidine (TMB) chromogenic solution were added per well. Following color development, the reaction was stopped with 1 N HCl, and absorbance at 450 nm (OD450) was measured on a VARIOSKAN™ LUX microplate reader (Thermo Scientific™).
# human TGFβ2 = target: T3, human TGFβ2 (human, UniProt P61812 303-414); experiment: ELISA: human TGFβ2 coated (1 µg/ml), binding protein titrated 0.0006-10 nM, anti-human IgG Fc-HRP, OD450
# T3 construct: also called TGFβ isoform 2; TGFβ2 (Cat. No. CJ79, Novoprotein)
# T3 sequence (looked up): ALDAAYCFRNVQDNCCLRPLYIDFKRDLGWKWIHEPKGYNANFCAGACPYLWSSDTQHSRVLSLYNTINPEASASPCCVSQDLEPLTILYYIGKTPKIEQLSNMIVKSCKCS
# Procedure: as §2
binder,measurement,setting,value
B1,Off-Rate Ratio to that of EM0005-86c,[1],78%
same,koff,[2],0.000957 s⁻¹
B2,Off-Rate Ratio to that of EM0005-86c,[3],116%
same,koff,[4],0.00119 s⁻¹
B3,Off-Rate Ratio to that of EM0005-86c,[1],72%
same,koff,[2],0.000887 s⁻¹
B4,Off-Rate Ratio to that of EM0005-86c,[1],99%
same,koff,[2],0.00122 s⁻¹
B5,Off-Rate Ratio to that of EM0005-86c,[3],81%
same,koff,[4],0.000838 s⁻¹
B6,Off-Rate Ratio to that of EM0005-86c,[5],73%
same,koff,[6],0.00131 s⁻¹
B7,Off-Rate Ratio to that of EM0005-86c,[3],120%
same,koff,[4],0.00124 s⁻¹
B8,Off-Rate Ratio to that of EM0005-86c,[1],120%
same,koff,[2],0.00147 s⁻¹
B9,Off-Rate Ratio to that of EM0005-86c,[5],73%
same,koff,[6],0.00131 s⁻¹
B10,Off-Rate Ratio to that of EM0005-86c,[1],115%
same,koff,[2],0.00142 s⁻¹
B11,Off-Rate Ratio to that of EM0005-86c,[5],88%
same,koff,[6],0.00157 s⁻¹
B12,Off-Rate Ratio to that of EM0005-86c,[5],89%
same,koff,[6],0.0016 s⁻¹
B13,Off-Rate Ratio to that of EM0005-86c,[5],84%
same,koff,[6],0.0015 s⁻¹
B14,Off-Rate Ratio to that of EM0005-86c,[5],87%
same,koff,[6],0.00155 s⁻¹
B15,EC50,human TGFβ1,0.696 nM
same,EC50,human TGFβ2,3.6 nM
B16,Off-Rate Ratio to that of EM0005-86c,[3],108%
same,koff,[4],0.00111 s⁻¹
